Measured values from paper PMC10294659, “Cryo-EM Structures of the Klebsiella pneumoniae AcrB Multidrug Efflux Pump” (mBio, 2023).

Columns and labels:
[1] = target: Klebsiella pneumoniae AcrB multidrug efflux pump (Klebsiella pneumoniae) (UniProt W9B4M6); test: cryo-EM structure; single-particle cryo-EM of 10 uM KpAcrB in lipidic nanodiscs (MSP 1E3D1, E. coli total extract lipid; 20 mM Tris-HCl pH 7.5, 100 mM NaCl); apo, and after 2 h with 500 uM erythromycin
[2] = target: T1, KpAcrB (K. pneumoniae AcrB multidrug efflux pump) (Klebsiella pneumoniae, UniProt W9B4M6); test: microscale thermophoresis (label-free); cryo-EM structure of the complex also solved; format: binding
T1 construct: full-length, 1,048 residues (model 1-1033), N-terminal 6xHis tag, pET15b, expressed in E. coli BL21(DE3) delta-acrB; homotrimer; in DDM for MST, in MSP1E3D1 lipid nanodiscs for cryo-EM

Compound	stoichiometry N [1]	Kd [2] [µM]
Klebsiella pneumoniae AcrB multidrug efflux pump (from UniProt W9B4M6 1-1048) (natural protein)	3	–
CC[C@H]1OC(=O)[C@H](C)[C@@H](O[C@H]2C[C@@](C)(OC)[C@@H](O)[C@H](C)O2)[C@H](C)[C@@H](O[C@@H]2O[C@H](C)C[C@H](N(C)C)[C@H]2O)[C@](C)(O)C[C@@H](C)C(=O)[C@H](C)[C@@H](O)[C@]1(C)O [erythromycin]	–	14.4 ± 2.6
